Experiment [1] deals with human IL-10Rβ extracellular domain (residues 20-220), biotinylated, from Hi5 cells (human) (UniProt Q08334).
Experiment [2] addresses Clone 5.1 (super-10) in the presence of IL-10Rα ECD (UniProt P22301).
For experiment [3], the target named is Clone 5.1 (super-10), affinity-matured mono-IL-10 clone (UniProt P22301).

human IL-10Rβ extracellular domain (residues 20-220), biotinylated, from Hi5 cells (human), sequence (Q08334 20-220): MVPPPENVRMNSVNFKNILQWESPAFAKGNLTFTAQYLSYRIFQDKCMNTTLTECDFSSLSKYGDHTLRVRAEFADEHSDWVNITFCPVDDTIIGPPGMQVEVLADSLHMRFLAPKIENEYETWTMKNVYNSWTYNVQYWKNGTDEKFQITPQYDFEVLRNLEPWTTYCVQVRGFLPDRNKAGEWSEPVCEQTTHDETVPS
human IL-10Rβ extracellular domain (residues 20-220), biotinylated, from Hi5 cells, sequence (Q08334 20-220): as above

The substance “IL-10 D25A/E96A (10-DE) (from UniProt P22301 19-178) (ligand)” gave a phospho-STAT3 by flow cytometry, YT-1 cells, relative to WT IL-10 in experiment [1] of 50%.
Same read-out and setting: the figure for “IL-10 D25K (from UniProt P22301 19-178) (ligand)” is 50%.
Usually Kd stands for the equilibrium constant for the complex coming apart. With “human IL-10Rβ extracellular domain (residues 20-220), biotinylated, from Hi5 cells (from UniProt Q08334 20-220) (receptor)”, the results for the Kd in experiment [2] and in experiment [3] were 30 nM and 70 nM, respectively.

The values are drawn from publication PMC9132103.
